Measured values: patent publication US20050175719A1, “Procyanidins for treatment and prevention of enzymatic irritation to the skin” (priority 2004, published 2005)

System: trypsin
Assay: Inhibition of trypsin-induced cleavage of fluorescent BODIPY FL casein (EnzChek protease assay kit)
Assay type: biochemical
Source text: The procedure of Example 1 was independently repeated using the procyanidin-containing grape seed extract and STI, respectively, at 0.1% concentration. In addition, the procedure of Example 1 was repeated on the five individual monomer units typically found in OPC, at up to three different concentration levels.

B1: Lactoferrin: commonly used antioxidant (protein, UniProt P02788 20-710, looked up)
Lactotransferrin: GRRRSVQWCAVSQPEATKCFQWQRNMRKVRGPPVSCIKRDSPIQCIQAIAENRADAVTLDGGFIYEAGLAPYKLRPVAAEVYGTERQPRTHYYAVAVVKKGGSFQLNELQGLKSCHTGLRRTAGWNVPIGTLRPFLNWTGPPEPIEAAVARFFSASCVPGADKGQFPNLCRLCAGTGENKCAFSSQEPYFSYSGAFKCLRDGAGDVAFIRESTVFEDLSDEAERDEYELLCPDNTRKPVDKFKDCHLARVPSHAVVARSVNGKEDAIWNLLRQAQEKFGKDKSPKFQLFGSPSGQKDLLFKDSAIGFSRVPPRIDSGLYLGSGYFTAIQNLRKSEEEVAARRARVVWCAVGEQELRKCNQWSGLSEGSVTCSSASTTEDCIALVLKGEADAMSLDGGYVYTAGKCGLVPVLAENYKSQQSSDPDPNCVDRPVEGYLAVAVVRRSDTSLTWNSVKGKKSCHTAVDRTAGWNIPMGLLFNQTGSCKFDEYFSQSCAPGSDPRSNLCALCIGDEQGENKCVPNSNERYYGYTGAFRCLAENAGDVAFVKDVTVLQNTDGNNNEAWAKDLKLADFALLCLDGKRKPVTEARSCHLAMAPNHAVVSRMDKVERLKQVLLHQQAKFGRNGSDCPDKFCLFQSETKNLLFNDNTECLARLHGKTTYEKYLGPQYVAGITNLKKCSTSPLLEACEFLRK
trypsin inhibition activity (in words) (at concentrations up to 0.1%): no trypsin inhibition activity | % trypsin inhibition (concentration 0.001 % (w/w)): −2% | % trypsin inhibition (concentration 0.01 % (w/w)): −4% | % trypsin inhibition (concentration 0.1 % (w/w)): 0%

B2: STI: pure serine protease inhibitor (soybean trypsin inhibitor) from Sigma, used as positive control (protein, UniProt P01070 25-205, looked up)
Trypsin inhibitor A: DFVLDNEGNPLENGGTYYILSDITAFGGIRAAPTGNERCPLTVVQSRNELDKGIGTIISSPYRIRFIAEGHPLSLKFDSFAVIMLCVGIPTEWSVVEDLPEGPAVKIGENKDAMDGWFRLERVSDDEFNNYKLVFCPQQAEDDKCGDIGISIDHDDGTRRLVVSKNKPLVVQFQKLDKESL
% trypsin inhibition (Table 4, concentration (w/w) 0.1 %): 89% | % trypsin inhibition (concentration 0.0005 % (w/w)): 17% | % trypsin inhibition (concentration 0.001 % (w/w)): 30% | % trypsin inhibition (concentration 0.0025 % (w/w)): 44% | % trypsin inhibition (concentration 0.005 % (w/w)): 55% | % trypsin inhibition (concentration 0.01 % (w/w)): 74% | % trypsin inhibition (concentration 0.025 % (w/w)): 85% | % trypsin inhibition (concentration 0.05 % (w/w)): 87% | % trypsin inhibition (concentration 0.075 % (w/w)): 63%
